Results: article PMC3511536, “The Interleukin 3 Gene (IL3) Contributes to Human Brain Volume Variation by Regulating Proliferation and Survival of Neural Progenitors”
Changes are numbered by the printed parent chain.

B1: IL3 promoter rs31480 T-allele (dsDNA)
DNA 1: TGCACATATAAGGCGGGAGGTTGTTGCCAACGCTTCAGAGC
DNA 2: GCTCTGAAGCGTTGGCAACAACCTCCCGCCTTATATGTGCA
B2: IL3 promoter rs31480 C-allele (dsDNA)
DNA 1: B1 DNA 1 with T21C
DNA 2: B1 DNA 2 with A21G

Target: SP1 (Homo sapiens, UniProt P08047 1-785)
Test: EMSA; 10 mM Tris-HCl pH 7.5, 1 mM MgCl2, 0.5 mM EDTA, 0.5 mM DTT, 50 mM NaCl, 50 ug/ml poly(dI-dC), 4% glycerol, 35 fmol probe, 20 min, room temperature; 6% native PAGE
Conditions: protein: recombinant; label: 3' biotin; blunt

Sequence of SP1 (P08047 whole entry): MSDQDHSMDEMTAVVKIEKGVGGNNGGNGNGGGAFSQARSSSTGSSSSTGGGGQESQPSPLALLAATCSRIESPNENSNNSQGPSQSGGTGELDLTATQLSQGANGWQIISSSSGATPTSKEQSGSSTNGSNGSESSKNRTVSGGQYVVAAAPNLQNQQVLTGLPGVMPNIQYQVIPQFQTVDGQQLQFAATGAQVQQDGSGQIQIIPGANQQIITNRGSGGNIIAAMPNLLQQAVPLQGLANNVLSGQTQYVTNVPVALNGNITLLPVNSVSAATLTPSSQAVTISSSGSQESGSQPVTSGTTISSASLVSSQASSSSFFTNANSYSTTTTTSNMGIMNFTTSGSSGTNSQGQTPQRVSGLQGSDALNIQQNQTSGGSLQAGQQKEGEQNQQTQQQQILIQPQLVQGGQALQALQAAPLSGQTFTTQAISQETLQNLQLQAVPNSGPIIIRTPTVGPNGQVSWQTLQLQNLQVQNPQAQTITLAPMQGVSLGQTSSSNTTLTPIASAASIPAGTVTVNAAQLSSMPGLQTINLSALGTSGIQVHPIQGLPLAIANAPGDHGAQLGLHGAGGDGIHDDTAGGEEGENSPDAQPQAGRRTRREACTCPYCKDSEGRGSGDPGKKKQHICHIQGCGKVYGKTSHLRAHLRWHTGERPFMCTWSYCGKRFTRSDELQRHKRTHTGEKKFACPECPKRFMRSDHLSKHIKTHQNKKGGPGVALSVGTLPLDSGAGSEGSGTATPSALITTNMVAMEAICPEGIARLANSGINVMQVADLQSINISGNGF

Binder	binding result
B1	binds
B2	no binding
